These results are taken from patent publication US10232056B2, “Method for measuring toxicity of human CSF” (KYOWA HAKKO KIRIN CO., LTD., priority 2014, dated 2019).

Test [1] has as its system ICR mice. The test can be described thus: Blind measurement of changes in cognitive function of mice after 6E4HV0LV0 pretreatment of CSF (Y-maze test, Example 6). The format is in vivo, mouse. The note with it: for Percentage improvement by 6E4HV0LV0 treatment (%): 10 μl intraventricular; for improvement of spontaneous alternation by 6E4HV0LV0 pretreatment: 10 ng/ml. On the procedure: The cognitive function of mice administered with multiple normal CSFs or AD patient CSFs was measured in blind experiment by performing a Y-maze test in the same manner as in Example 1. The effect of 6E4HV0LV0 pretreatment was also examined at the same time. The experiment was conducted by separating testers who is responsible for dispensing normal CSFs or AD patient CSFs and preparing a 6E4HV0LV0-pretreated AD patient CSF for blind experiment, and who is responsible for administering the samples to mice, and conducting the Y-maze test.
Tester (A) randomly assigned numbers to the dispensed normal CSFs (Precision Med) and AD patient CSFs (Precision Med) for blind experiment. For the AD patient CSFs, samples were also prepared by adding 6E4HV0LV0 to each dispensed CSF to make the final concentration 10 ng/ml, and incubating the mixture at room temperature for about 1 hour. The dispensed and prepared CSF samples were all preserved at −80° C. until the day of the Y-maze testing.
On the day of the Y-maze testing, tester (B) received the samples prepared by tester (A) for blind experiment, and thawed the samples at room temperature. Each sample (10 μl) or physiological saline (10 μl; hereinafter, “Sham”) was administered into the cerebral ventricles of ICR mice under isoflurane anesthesia, and the mice were tested by Y-maze test in the same manner as in Example 1 to determine spontaneous alternation (%). The sample and the physiological saline were administrated in 5 μl dose into each of the left and right cerebral ventricles of mice.
A Y-maze test that used the AD patient CSFs pretreated with 6E4HV0LV0 was conducted at the same time. Percentage improvement of mouse spontaneous alternation by 6E4HV0LV0 pretreatment was calculated for each mouse by using the Formula (3) below. The results are shown under the column heading “Percentage improvement by 6E4HV0LV0 treatment (%)” in Table 1. Percentage improvement (%) of mouse spontaneous alternation by 6E4HV0LV0 pretreatment={(spontaneous alternation of mouse administered with AD patient CSF pretreated with 6E4HV0LV0)−(spontaneous alternation of mouse administered with the same AD patient CSF without 6E4HV0LV0 pretreatment)}/{(spontaneous alternation of Sham administered group)−(spontaneous alternation of mouse administered with the same AD patient CSF without 6E4HV0LV0 pretreatment)}×100 Formula (3)

The test system of test [2] is ICR mice. The test can be described thus: Effect of anti-Aβ antibody intravenous administration on mouse cognitive function impairment by AD patient CSF (Y-maze test, Example 4). It is filed as in vivo. The note with it: next day 10 μl AD patient CSF intraventricular, FIG. 4. On the procedure:
Next, mice that had intravenous administration of anti-Aβ oligomer antibody were measured for changes in cognitive function after AD patient CSF administration, using a Y-maze test. As the anti-Aβ oligomer antibody, an anti-Aβ oligomer humanized antibody 6E4HV0LV0 was produced according to the method disclosed in WO2011/016567 and known methods, and used in the experiment.
ICR mice were intravenously administered with 3 mg/kg of human IgG4 (Sigma-Aldrich), or 0.3 mg/kg, 1 mg/kg, or 3 mg/kg of 6E4HV0LV0.
On the next day, 10 μl of physiological saline (hereinafter, “Sham”) or the same amount of AD patient CSF (Precision Med) was administered into the cerebral ventricles of the mice under isoflurane anesthesia. Each mouse was then tested by Y-maze test in the same manner as in Example 1 to determine spontaneous alternation (%). The AD patient CSF and the physiological saline were administrated in 5 μl dose into each of the left and right cerebral ventricles.
In the following, mice that had intravenous administration of human IgG4, and intraventricular administration of Sham will be identified by using the notation “human IgG4 i.v.-Sham administered group.” Similar notations are used for mice administered with other samples.

The test system of test [3] is ICR mice. The test can be described thus: Effect of anti-Aβ antibody pretreatment of AD patient CSF on mouse cognitive function impairment (Y-maze test, Example 5). The note with it: 10 μl intraventricular, FIG. 5. It is filed as in vivo. As for the experimental part:
For the purpose of evaluating a sample that more accurately reflects the actual clinical sample, the cognitive function of mice administered with an AD patient CSF pretreated with 6E4HV0LV0 was measured by Y-maze test.
6E4HV0LV0 was added to AD patient CSF (Precision Mod) to make the final concentration 1 ng/ml, 10 ng/ml, or 100 ng/ml, and the mixture was incubated at room temperature for about 1 hour.
Artificial cerebrospinal fluid [artificial spinal fluid (Otsuka Pharmaceutical Co., Ltd.) supplemented with 0.02 w/v % human serum albumin (Sigma-Aldrich)](hereinafter, “vehicle”) was added to AD patient CSF or physiological saline (hereinafter, “Sham”), and the mixture was incubated at room temperature. The prepared sample was preserved at −80° C., and used for the experiment after being thawed at room temperature on the day of the Y-maze testing.
The sample (10 μl each) was administered into the cerebral ventricles of ICR mice under isoflurane anesthesia, and each mouse was tested by Y-maze test in the same manner as in Example 1 to determine spontaneous alternation (%). Each sample was administrated in 5 μl dose into each the left and right cerebral ventricles of mice.
In the following, the sample with the AD patient CSF plus the vehicle will be identified by the notation “vehicle-AD CSF”. Similar notations are used for other samples.

B1: 6E4HV0LV0: anti-Aβ oligomer humanized antibody, VH SEQ ID NO: 1, VL SEQ ID NO: 2, produced according to WO2011/016567 (antibody, V domains shown)
VH: QVQLVQSGAEVKKPGASVKVSCKASGYTFTSYWMHWVRQAPGQGLEWMGEINPRNGGTNNNENFKRRVTITADTSTSTAYMELSSLRSEDTAVYYCARDGNYDPFAYWGQGTLVTVSS
VL: DIVMTQSPLSLPVTPGEPASISCRSSQSLVHSNGNTYLHWYLQKPGQSPQLLIYKVSNRFSGVPDRFSGSGSGTDFTLKISRVEAEDVGVYYCSQSTHVPPYTFGQGTKLEIK
Consider B1, for which the “Percentage improvement by 6E4HV0LV0 treatment (%)” value (shortened to “Percentage improvement … (%)”) in test [1] (AD patient CSF 8006_Visit 3 pretreated with 10 ng/ml) is 80.2%; in test [1] (AD patient CSF 8014_Visit 4 pretreated with 10 ng/ml), 59.7%; in test [1] (AD patient CSF 8026_Visit 2 pretreated with 10 ng/ml), 14.5%; in test [1] (AD patient CSF 8029_Visit 2 pretreated with 10 ng/ml), −11.8%; in test [1] (AD patient CSF 8056_Visit 9 pretreated with 10 ng/ml), 86.8%; in test [1] (AD patient CSF 8057_Visit 8 pretreated with 10 ng/ml) it was 59.3%. Besides, the “Percentage improvement … (%)” value in test [1] (AD patient CSF 8060_Visit 6 pretreated with 10 ng/ml) is given as 46.0%; in test [1] (AD patient CSF 8061_Visit 5 pretreated with 10 ng/ml), 65.6%; in test [1] (AD patient CSF 8076_Visit 8 pretreated with 10 ng/ml), 68.3%; in test [1] (AD patient CSF 8091_Visit 5 pretreated with 10 ng/ml), 56.3%; in test [1] (AD patient CSF 8092_Visit 3 pretreated with 10 ng/ml), 87.7%; in test [1] (AD patient CSF 8108_Visit 6 pretreated with 10 ng/ml), 82.0%. For the same molecule, the “Percentage improvement … (%)” value in test [1] (AD patient CSF 8109_Visit 5 pretreated with 10 ng/ml) is reported as 90.7%; in test [1] (AD patient CSF 8189_Visit 3 pretreated with 10 ng/ml), 83.1%; in test [1] (AD patient CSF 8211_Visit 2 pretreated with 10 ng/ml), 90.0%. In addition, the “improvement of spontaneous alternation by 6E4HV0LV0 pretreatment” value in test [1] (in 6 out of the 15 AD patient CSF samples) was no less than 40%; in test [1] (in 7 out of the 15 AD patient CSF samples), no less than 80%. Besides, the “effect of 6E4HV0LV0 pretreatment on cognitive function impairment by normal CSF” value in test [1] (the one normal CSF (1 out of 11) that impaired cognitive function) is reported as “did not improve”. In addition, the “spontaneous alternation compared to the human IgG4 i.v.-AD CSF administered group” value in test [2] (3 mg/kg i.v.) is “significantly higher”. Also, the “spontaneous alternation compared to the human IgG4 i.v.-Sham administered group” value in test [2] (3 mg/kg i.v.) is recorded as “recovering to the same levels”. Moreover, the “spontaneous alternation, dose response” value in test [2] (6E4HV0LV0 0.3, 1 or 3 mg/kg i.v.) was “increased with increase in the dose”. In test [3] (AD patient CSF pretreated at final concentration of 10 ng/ml or 100 ng/ml), the “spontaneous alternation compared to the vehicle-AD CSF administered group” value is listed as “higher”. In test [3] (AD patient CSF pretreated at final concentration of 100 ng/ml), the “spontaneous alternation compared to the vehicle-Sham administered group” value is on record as “recovering to the same levels”.
